Here are results for 1 molecule from US20050158309A1.

[ ]: non-standard residue; d: D form. pGlu = O=C1CC[C@@H](C(=O)O)N1

The target of assay [1] is aCII6 polyclonal antibody against GnRH-II. Briefly: RIA cross-reactivity with antibody aCII6 (relative to GnRH-II).
The target of assay [2] is KLII-2 antiserum against GnRH-II. As to the kind of experiment: RIA cross-reactivity with antiserum KLII-2 (relative to GnRH-II).

B1: Salmon GnRH (sGnRH) (peptide)
peptide: [pGlu]HWSYGWLPG-NH2
SMILES: CC(C)C[C@H](NC(=O)[C@H](Cc1c[nH]c2ccccc12)NC(=O)CNC(=O)[C@H](Cc1ccc(O)cc1)NC(=O)[C@H](CO)NC(=O)[C@H](Cc1c[nH]c2ccccc12)NC(=O)[C@H](Cc1c[nH]cn1)NC(=O)[C@@H]1CCC(=O)N1)C(=O)N1CCC[C@H]1C(=O)NCC(N)=O
Consider B1, for which the cross-reactivity in assay [1] turned out to be 0.013%; in assay [2] it was 0.003%.
